Assay results published in patent publication US20200377604A1 (Genentech, published 2020).

Target: T1, knob Fc F241R/F243S (Homo sapiens (Human), UniProt P0DOX5 223-449 = IgG part, F241R; F243S)
T1 construct: Positions are EU numbers; the entry starts at 221; also called Knob F241R/F243S; F241R/F243S mutant knob
Assay: SPR (BioRad ProteOn), immobilized ligand Knob F241R/F243S, analyte Knob F241S/F243R at 6.25-200 nM
Procedure: FIGS. 11A-11E are a series of the surface plasmon resonance (SPR) spectra curves from experiments using an immobilized ligand. The analyte was passed over the ligand and the homodimerization was monitored. Analyte concetrations were tested at 6.25 nM, 12.5 nM, 25 nM, 50 nM, 100 nM and 200 nM. The ligands were: (A) The knob wild-type, (B) hole wild-type, (C) knob F241R/F243S, (D) knob F241S/F243R, and (E) hole F241S/F243R.
Using a BioRad ProteOn™ system, knob wild-type, hole wild-type, knob F241R/F243S, knob F241S/F243R, and hole F241S/F243R ligands were immobilized on an NHS activated sensor. The analyte, knob F241S/F243R, was passed over the sensor in 25 mM Tris 150 mM NaCl 0.05% Tween-20 pH 8.0. Analyte concentrations were 200 nM, 100 nM, 50 nM, 25 nM, 12.5 nM, and 6.25 nM. The ProteOnM chip was regenerated between each analyte concentration using 10 mM Glycine pH3. […] The Kd for the heterodimers is in the single digit nanomolar range in both cases.

B1: knob Fc F241S/F243R (other, name in EU numbering)
chain: DKTHTSPPSPAPELLGGPSVSLRPPKPKDTLMISRTPEVTCVVVDVSHEDPEVKFNWYVDGVEVHNAKTKPREEQYNSTYRVVSVLTVLHQDWLNGKEYKCKVSNKALPAPIEKTISKAKGQPREPQVYTLPPSREEMTKNQVSLWCLVKGFYPSDIAVEWESNGQPENNYKTTPPVLDSDGSFFLYSKLTVDKSRWQQGNVFSCSVMHEALHNHYTQKSLSLSPGK
notes: Positions are EU numbers; the entry starts at 221; This was the analyte in the SPR experiment; also called Knob F241S/F243R; F241S/F243R mutant knob
binding result: no binding (tested: 200 nM)
